{"source": "patent US20250041437A1", "about": "“HUMANIZED MUC1 ANTIBODY AND ANTIBODY DRUG CONJUGATE” (Sun Pharma Advanced Research Company Limited, priority 2023, published 2025)", "binders": {"B1": {"name": "Hu-5F3 (HM1 LM2) (antibody, V domains shown)", "VH": "EIQLVQSGAEVKKPGSSVKVSCKVTGHSITRGSSWHWMRQAPGQGLEWIGYIHYGGGTSYNPSLKSRATLTVDTSTNTAYMELSSLRSEDTAFYFCARYSYDITYRWFFDVWGQGTLVTVSS", "VL": "DIQMTQSPSTLSASVGDRVTITCRASQNIGTSIHWYQQKPGKAPKLLIKRASESISGVPSRFSGSGSGTEFTLTISSLQPDDFATYYCQQNNNWPLTFGQGTKVEVK"}}, "key": {"[1]": {"biological_target": "human MUC1 on cells (DA3-TM transfectants and human cancer cell lines SKOV3, COLO357, HT29 and others) (human) (UniProt P15941)", "sequence (P15941 24-1255 limits assumed)": "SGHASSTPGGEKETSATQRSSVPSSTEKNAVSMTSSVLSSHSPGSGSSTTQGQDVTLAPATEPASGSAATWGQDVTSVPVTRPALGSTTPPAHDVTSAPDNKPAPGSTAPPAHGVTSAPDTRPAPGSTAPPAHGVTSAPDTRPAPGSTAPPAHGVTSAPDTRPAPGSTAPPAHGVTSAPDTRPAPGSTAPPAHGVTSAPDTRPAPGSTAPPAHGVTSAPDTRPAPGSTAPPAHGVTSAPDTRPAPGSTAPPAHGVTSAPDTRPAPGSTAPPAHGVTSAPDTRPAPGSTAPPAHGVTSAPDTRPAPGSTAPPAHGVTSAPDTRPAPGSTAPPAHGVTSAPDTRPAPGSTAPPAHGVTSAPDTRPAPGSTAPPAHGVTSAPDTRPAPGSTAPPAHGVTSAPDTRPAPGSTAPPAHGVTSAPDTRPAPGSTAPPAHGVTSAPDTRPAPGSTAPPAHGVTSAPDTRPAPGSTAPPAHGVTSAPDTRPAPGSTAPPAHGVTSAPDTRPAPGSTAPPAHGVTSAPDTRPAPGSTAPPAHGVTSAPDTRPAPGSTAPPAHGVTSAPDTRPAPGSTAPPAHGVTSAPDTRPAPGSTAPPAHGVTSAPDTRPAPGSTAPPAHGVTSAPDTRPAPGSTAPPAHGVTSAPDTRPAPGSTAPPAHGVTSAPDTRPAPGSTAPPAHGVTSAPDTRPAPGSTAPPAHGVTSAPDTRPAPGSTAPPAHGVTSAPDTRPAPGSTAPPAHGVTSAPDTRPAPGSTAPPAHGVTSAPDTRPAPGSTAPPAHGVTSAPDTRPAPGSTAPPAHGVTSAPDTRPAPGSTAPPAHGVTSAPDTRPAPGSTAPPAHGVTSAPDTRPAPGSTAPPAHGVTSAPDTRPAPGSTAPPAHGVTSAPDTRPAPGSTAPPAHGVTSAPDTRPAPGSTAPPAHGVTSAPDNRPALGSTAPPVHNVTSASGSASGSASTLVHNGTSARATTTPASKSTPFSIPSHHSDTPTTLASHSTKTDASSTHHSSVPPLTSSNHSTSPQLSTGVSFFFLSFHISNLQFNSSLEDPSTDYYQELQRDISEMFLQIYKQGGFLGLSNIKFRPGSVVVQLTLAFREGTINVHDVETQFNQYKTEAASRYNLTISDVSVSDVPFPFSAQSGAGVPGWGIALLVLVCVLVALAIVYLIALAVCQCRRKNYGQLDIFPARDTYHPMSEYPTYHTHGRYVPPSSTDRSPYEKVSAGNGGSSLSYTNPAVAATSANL", "experiment": "flow cytometry on DA3-TM cells; table row 5 of 5 from the top, concentration not printed in this figure"}, "[2]": {"biological_target": "human MUC1 on cells (DA3-TM transfectants and human cancer cell lines SKOV3, COLO357, HT29 and others) (human) (UniProt P15941)", "experiment": "flow cytometry on DA3-TM cells; table row 2 of 5 from the top, concentration not printed in this figure"}, "[3]": {"biological_target": "human MUC1 on cells (DA3-TM transfectants and human cancer cell lines SKOV3, COLO357, HT29 and others) (human) (UniProt P15941)", "experiment": "flow cytometry on DA3-TM cells; table row 4 of 5 from the top, concentration not printed in this figure"}, "[4]": {"biological_target": "human MUC1 on cells (DA3-TM transfectants and human cancer cell lines SKOV3, COLO357, HT29 and others) (human) (UniProt P15941)", "experiment": "flow cytometry on DA3-TM cells; table row 3 of 5 from the top, concentration not printed in this figure"}}, "data": [{"binder": "B1", "values": [{"measurement": "Geometric Mean : FL6-A", "setting": "[1]", "value": 35.9}, {"measurement": "Geometric Mean : FL6-A", "setting": "[2]", "value": 114}, {"measurement": "Geometric Mean : FL6-A", "setting": "[3]", "value": 45.3}, {"measurement": "Geometric Mean : FL6-A", "setting": "[4]", "value": 71.4}]}]}
